Results as given in the supplement of paper PMC10567573.

B1: STEAP1 (parent)
chain: WMLTRKQFGLLSFFFAVLHAIYSL
B2: ZBED2 (parent)
chain: FHLAPARAGHHPNQYATCRLCGRQ

Variants of: B1
Assay: protein stability index of a GFP-peptide fusion (GPS, HEK-293T) (PSI 1-6); higher = more stable
Conditions: c terminus: a fixed tail appended
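Further: lentivirally expressed fusions sorted by FACS into six bins by GFP to DsRed ratio, PSI derived from sequencing read proportions per bin multiplied by bin number.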

Protein stability index: each site, then its substitutions
L3: I 2.59, M 2.22, Q 2.05, V 1.52, G 1.76, H 2.09, W 1.73, C 3.54, S 1.66, R 1.71, Y 2.06, A 1.73, N 2.1, P 2.27, K 1.71, T 2.36, D 2.93, F 2.74, E 1.57
K6: N 2.32, R 1.88, D 1.18, M 2.07, E 2.56, S 2.85, P 1.8, Q 2.48, V 3.54, H 3.26, F 1.79, C 2.16, T 2.08, Y 3.86, L 3.1
Q7: D 2.01, I 1.61, H 2.53, A 2.49, E 1.21, G 1.78, F 1.47, K 1.8, C 1.82
M2: F 1.73, T 1.94, K 1.78, Q 1.77, Y 1.99, G 1.46, D 1.58, R 1.9, P 2.23, V 1.85, W 1.75, L 1.97, N 2.18, A 1.74, C 1.49, S 1.52, I 1.64, H 1.7, E 2.08
R5: T 3.62, P 2.2, F 2.14, N 2.12, E 2.03, A 1.04, G 2.29, W 2.1, S 2.07, M 2.47, C 1.52, K 1.52, D 1.96, H 3.39, Q 2.21, Y 2.77
T4: H 1.6, L 2.77, K 2.13, Y 1.41, W 1.89, A 1.28, E 1.1, S 1.62, Q 2.35, I 2.3, N 1.99, C 1.8, F 2.31, G 1.63, P 1.7, D 1.66, R 1.59, M 1.69, V 1.92
W1: G 1.91, V 2.18, F 1.71, S 1.58, Q 1.85, E 1.58, R 2.01, K 1.63, P 2.13, Y 2.37, T 2.75, C 1.82, A 1.91, H 2.1, M 1.88, N 2.35, I 2.44, D 2.04, L 2.24

Variants of: B2
Assay: as above
Conditions: c terminus: a fixed tail appended

Protein stability index: each site, then its substitutions
C21: W 2.1, I 1.74, A 3.59, L 1.95, Q 2.08, K 2.31, T 2.72, S 3.43, P 2.59, Y 1.73, H 2.52, M 1.26, N 1.96, F 1.97
P12: F 2.1, I 1.95, W 1.52, S 2.23, H 3.06, G 2.48, C 2.67, Y 1.47, V 1.49, A 1.5, L 2.12
H10: C 2.01, W 1.78, Y 1.7, S 2.24, N 1.55, I 2.3, D 1.27, V 1.19, T 3.52, F 1.9, P 2.05, M 2.81, Q 2.13, A 1.22, K 2.63, G 1.34, L 1.7, R 1.21, E 2.32
Q24: M 1.24, C 1.84, E 2.12, F 3.46, L 2.19, Y 1.53, P 1.91, G 2.41, V 1.7, H 2, S 2.03, T 1.65, A 1.9
Y15: P 1.07, C 1.44, K 1.53, F 2.54, R 1.15, Q 2.65, H 2.14, E 2.43, V 1.57, I 1.63
T17: S 2.47, D 2.85, E 1.73, F 2.23, I 1.55, M 2.42, K 1.72, Y 2.15, N 1.99, G 2.76, L 1.25, P 1.69, C 1.68
N13: D 1.43, Y 1.55, I 1.42, T 1.52, K 1.77, M 1.52, A 2.34, E 3.21, C 2.97, Q 1.98
G9: A 1.86, S 2.51, K 1.08, D 1.83, F 1.77, H 2.22, L 2.55, V 1.37, W 2.05, N 2.11, T 2.44, M 2.27, Y 1.99, C 3.72, P 1.69, I 1.84, E 1.97, Q 2.11
L20: D 1.27, T 1.82, C 1.54, P 2.23, G 2.82, Q 1.18, V 2.27, S 2.22, N 1.31, M 1.94, Y 3.71, R 1.92, H 1.55, F 2.4
R19: V 2.78, S 1.92, W 1.3, E 1.7, Y 1.16, G 2.11, T 1.81, N 1.52, F 1.64, K 3.11, H 2.05, A 1.93, Q 2.36
H11: D 1.46, C 2.12, G 2.01, V 1.98, N 1.39, A 2.48, E 2.04, P 1.4, I 1.33, W 1.04, T 1.95, K 1.58, M 2.35, Q 1.29, F 1.98
Q14: Y 2.31, E 2.16, T 1.47, S 1.48, D 1.99, P 2.48, C 2.11, K 2.58
R23: W 2.46, K 1.37, F 2.1, C 1.32, N 2.07, D 2, E 1.54, Y 1.83, Q 2.43, A 1.85, I 1.93, S 1.52, M 1.81
A8: V 1.65, W 3.08, Y 3.15
G22: W 1.7, N 1.56, Q 1.82, P 2.92, A 1.03, H 2.05, I 2.08, M 1.21, F 1.95, T 2.82, L 2.57, E 1.93, C 2.87, Y 2.12
A16: N 2.38, S 1.82, Y 2.9, E 1.93, M 1.61, G 1.59, T 2.3, K 1.03, L 1.42, P 2.4, F 2.37, C 2.85, H 2.27, I 2.69
C18: S 2.4, V 2.25, Q 2.87, K 2.22, H 2.27, T 2.87, P 2.9, Y 1.93, N 3.56, L 1.42, W 1.97, E 3.08, F 1.93, A 2.12, I 2.17, M 1.93
